Key:
[1] = target: T1, MjAgo (Methanocaldococcus jannaschii) (UniProt Q58717); assay: equilibrium fluorescence titration; details: 5'-phosphate on guide; Stopped-flow at 25 °C, 20 nM FAM-labelled guide, same buffers as titrations (buffer composition not in the material; hybridization buffer 15 mM Hepes pH 7.4 …)
T1 sequence: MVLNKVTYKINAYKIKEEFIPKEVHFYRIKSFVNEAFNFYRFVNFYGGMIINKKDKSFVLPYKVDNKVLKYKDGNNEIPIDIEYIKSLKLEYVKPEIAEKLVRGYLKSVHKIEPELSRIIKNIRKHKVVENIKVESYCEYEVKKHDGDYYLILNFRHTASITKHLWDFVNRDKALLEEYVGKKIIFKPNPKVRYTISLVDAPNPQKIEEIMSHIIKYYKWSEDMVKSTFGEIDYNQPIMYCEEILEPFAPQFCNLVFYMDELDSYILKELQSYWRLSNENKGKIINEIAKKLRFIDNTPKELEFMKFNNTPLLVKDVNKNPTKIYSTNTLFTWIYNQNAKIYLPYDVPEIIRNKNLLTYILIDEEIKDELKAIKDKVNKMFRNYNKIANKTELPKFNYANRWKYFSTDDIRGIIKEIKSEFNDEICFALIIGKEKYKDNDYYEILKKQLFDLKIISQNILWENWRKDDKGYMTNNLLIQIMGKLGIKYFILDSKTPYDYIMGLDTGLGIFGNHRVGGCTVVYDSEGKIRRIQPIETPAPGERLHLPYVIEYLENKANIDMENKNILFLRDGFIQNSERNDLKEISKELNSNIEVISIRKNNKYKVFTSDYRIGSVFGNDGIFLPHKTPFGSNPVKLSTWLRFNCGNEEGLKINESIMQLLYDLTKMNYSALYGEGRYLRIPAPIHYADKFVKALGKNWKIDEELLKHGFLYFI

MjAgo [2] = target: T2, MjAgo (Methanocaldococcus jannaschii, UniProt Q58717 1-713); assay: equilibrium fluorescence titration; target binding to preformed MjAgo-guide DNA; Stopped-flow at 25 °C, 20 nM FAM-labelled guide, same buffers as titrations (buffer composition not in the material; hybridization buffer 15 mM Hepes pH 7.4, 50 mM K-acetate, 1 mM Mg-acetate); details: protein: recombinant; label: C6-linked 5/6-FAM at guide T14; guide preloaded on Ago, target added; 3' overhang 2 nt on both strands
T2 sequence: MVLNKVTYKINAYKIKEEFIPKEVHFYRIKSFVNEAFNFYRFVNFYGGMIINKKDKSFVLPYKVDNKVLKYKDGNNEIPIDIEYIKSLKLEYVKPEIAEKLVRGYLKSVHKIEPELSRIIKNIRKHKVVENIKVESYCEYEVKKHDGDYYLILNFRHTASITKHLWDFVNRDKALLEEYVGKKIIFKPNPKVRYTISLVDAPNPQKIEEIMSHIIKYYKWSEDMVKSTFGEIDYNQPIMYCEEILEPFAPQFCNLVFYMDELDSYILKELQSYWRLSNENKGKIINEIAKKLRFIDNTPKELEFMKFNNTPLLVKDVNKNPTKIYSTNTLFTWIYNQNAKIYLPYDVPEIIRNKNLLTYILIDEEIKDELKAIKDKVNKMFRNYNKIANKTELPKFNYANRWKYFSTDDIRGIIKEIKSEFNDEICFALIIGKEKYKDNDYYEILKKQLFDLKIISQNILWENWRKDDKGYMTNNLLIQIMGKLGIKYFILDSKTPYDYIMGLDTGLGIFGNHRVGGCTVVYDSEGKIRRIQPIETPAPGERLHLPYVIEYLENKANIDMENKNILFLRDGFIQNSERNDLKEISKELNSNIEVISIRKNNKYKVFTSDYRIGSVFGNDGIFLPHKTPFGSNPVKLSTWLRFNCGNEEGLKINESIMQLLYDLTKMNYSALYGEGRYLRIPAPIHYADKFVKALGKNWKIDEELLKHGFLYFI

MjAgo [3] = target: T2, MjAgo; assay: stopped-flow fluorescence; two-step, third phase undetectable; k2 0.018 s-1; Kd n.d.; Stopped-flow at 25 °C, 20 nM FAM-labelled guide, same buffers as titrations (buffer composition not in the material; hybridization buffer 15 mM Hepes pH 7.4, 50 mM K-acetate, 1 mM Mg-acetate); details: protein: recombinant; partially mismatched; guide preloaded on Ago, target added
hAgo2 = hAgo2 (human, UniProt Q9UKV8 1-859); assay: stopped-flow fluorescence; three-step; k1 0.1e8 M-1 s-1; Kd n.d.; Stopped-flow at 25 °C, 20 nM FAM-labelled guide, same buffers as titrations (buffer composition not in the material; hybridization buffer 15 mM Hepes pH 7.4, 50 mM K-acetate, 1 mM Mg-acetate); details: protein: recombinant; label: C6-linked 5/6-FAM at T14
MjAgo [4] = target: T2, MjAgo; assay: equilibrium fluorescence titration; Stopped-flow at 25 °C, 20 nM FAM-labelled guide, same buffers as titrations (buffer composition not in the material; hybridization buffer 15 mM Hepes pH 7.4, 50 mM K-acetate, 1 mM Mg-acetate); details: protein: recombinant; label: C6-linked 5/6-FAM at T14
[5] = target: T3, MjAgo Mid mutant (Tyr442Ala) (Methanocaldococcus jannaschii, UniProt Q58717 1-713, Y442A); assay: stopped-flow fluorescence; two-step, Mid binding phase missing; k3 0.002 s-1; Kd n.d.; Stopped-flow at 25 °C, 20 nM FAM-labelled guide, same buffers as titrations (buffer composition not in the material; hybridization buffer 15 mM Hepes pH 7.4, 50 mM K-acetate, 1 mM Mg-acetate); details: protein: recombinant; label: C6-linked 5/6-FAM at T14
T3 sequence: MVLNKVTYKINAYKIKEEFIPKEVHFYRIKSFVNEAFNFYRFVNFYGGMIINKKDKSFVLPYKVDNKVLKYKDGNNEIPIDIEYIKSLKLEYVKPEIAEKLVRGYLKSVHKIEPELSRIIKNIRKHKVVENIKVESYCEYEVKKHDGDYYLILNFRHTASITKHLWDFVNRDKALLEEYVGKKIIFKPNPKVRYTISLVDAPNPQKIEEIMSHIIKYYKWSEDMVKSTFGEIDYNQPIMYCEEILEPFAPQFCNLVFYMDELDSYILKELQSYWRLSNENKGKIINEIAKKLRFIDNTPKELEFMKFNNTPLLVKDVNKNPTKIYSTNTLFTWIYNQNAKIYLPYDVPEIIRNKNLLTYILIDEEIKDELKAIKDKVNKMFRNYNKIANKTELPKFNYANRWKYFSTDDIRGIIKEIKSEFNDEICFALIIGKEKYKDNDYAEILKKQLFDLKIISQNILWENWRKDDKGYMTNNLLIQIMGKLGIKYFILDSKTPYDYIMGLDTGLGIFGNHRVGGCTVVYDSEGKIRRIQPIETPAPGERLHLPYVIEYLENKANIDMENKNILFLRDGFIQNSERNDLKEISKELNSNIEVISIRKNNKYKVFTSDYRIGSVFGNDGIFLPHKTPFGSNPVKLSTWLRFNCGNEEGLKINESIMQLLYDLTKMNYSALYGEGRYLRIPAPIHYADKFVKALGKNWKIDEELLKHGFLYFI

Chain of hAgo2 (Q9UKV8 whole entry): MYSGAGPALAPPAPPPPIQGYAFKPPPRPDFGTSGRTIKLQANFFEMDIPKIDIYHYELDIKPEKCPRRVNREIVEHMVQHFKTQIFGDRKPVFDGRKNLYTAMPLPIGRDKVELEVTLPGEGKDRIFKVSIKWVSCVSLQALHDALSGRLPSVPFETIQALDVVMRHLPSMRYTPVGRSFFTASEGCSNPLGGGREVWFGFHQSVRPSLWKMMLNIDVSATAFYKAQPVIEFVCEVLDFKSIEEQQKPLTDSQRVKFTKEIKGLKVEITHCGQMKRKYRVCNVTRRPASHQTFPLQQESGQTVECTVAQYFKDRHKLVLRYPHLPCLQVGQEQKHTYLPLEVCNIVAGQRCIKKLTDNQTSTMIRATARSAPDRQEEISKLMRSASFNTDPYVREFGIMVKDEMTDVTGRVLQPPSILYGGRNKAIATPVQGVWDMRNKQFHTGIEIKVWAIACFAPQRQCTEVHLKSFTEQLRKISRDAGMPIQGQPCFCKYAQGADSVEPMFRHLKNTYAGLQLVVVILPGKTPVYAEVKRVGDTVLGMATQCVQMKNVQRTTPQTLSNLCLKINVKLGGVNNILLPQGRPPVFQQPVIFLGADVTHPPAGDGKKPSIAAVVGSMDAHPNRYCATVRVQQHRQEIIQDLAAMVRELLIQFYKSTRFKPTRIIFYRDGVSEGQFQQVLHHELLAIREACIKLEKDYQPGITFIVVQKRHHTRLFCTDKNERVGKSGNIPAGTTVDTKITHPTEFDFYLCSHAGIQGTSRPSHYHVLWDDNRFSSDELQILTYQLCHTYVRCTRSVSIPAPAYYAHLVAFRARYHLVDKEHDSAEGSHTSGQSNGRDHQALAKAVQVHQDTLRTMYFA

In the case of “TAGAGGTACGTGCTGAGGCTT / GCCTCAGCACGTACCTCTATT [D-as2bFAM/D-s2b (ds siDNA, D-si2bFAM)]”, the Kd [1] is reported as 103 nM.

B1: D-as2bFAM guide DNA / D-s2b target DNA (dsDNA)
DNA 1: TAGAGGTACGTGCTGAGGCTT
DNA 2: GCCTCAGCACGTACCTCTATT
modifications: 5'-phosphate on guide
In the case of B1, the Kd (MjAgo [2]) is reported as 0.5 ± 0.04 nM.

B2: D-as2bFAM guide DNA / 3'-mismatched target DNA (D-s2bmm) (dsDNA)
DNA 1: TAGAGGTACGTGCTGAGGCTT
DNA 2: GCCTCAGCAGCGGGAATATTT
modifications: 5'-phosphate on guide
B2: binds (MjAgo [3]).

With TAGAGGTACGTGCTGAGGCTT (ssDNA, 5'-phosphate) [D-as2bFAM (ss guide DNA)] the binding result (hAgo2) was “binds”, the Kd (MjAgo [4]) was 3.4 ± 0.4 nM and the binding result [5] was “binds”.
